These results are taken from patent US20260347498 (published 2026).

Assay [1] has as its target T1, human EpCAM extracellular domain (human).
T1 chain: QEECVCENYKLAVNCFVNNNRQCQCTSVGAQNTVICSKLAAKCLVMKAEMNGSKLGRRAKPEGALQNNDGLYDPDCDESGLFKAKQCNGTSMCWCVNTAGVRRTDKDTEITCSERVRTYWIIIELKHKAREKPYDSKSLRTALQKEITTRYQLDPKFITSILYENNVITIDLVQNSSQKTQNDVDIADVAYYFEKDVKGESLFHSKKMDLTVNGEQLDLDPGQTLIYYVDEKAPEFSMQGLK
As to the kind of experiment: BLI, 30C, monovalent. Background: BLI is a label-free optical method that tracks binding on a fibre tip over time.

The next assay addresses FcγRIIIa F158 (human, UniProt P08637). The experiment in a line: SPR. A general note: In SPR one partner is held on a chip, and binding of the other changes the refractive index at the surface.
In another assay the target is T2, FcγRIa (human, UniProt P12314).
T2 chain: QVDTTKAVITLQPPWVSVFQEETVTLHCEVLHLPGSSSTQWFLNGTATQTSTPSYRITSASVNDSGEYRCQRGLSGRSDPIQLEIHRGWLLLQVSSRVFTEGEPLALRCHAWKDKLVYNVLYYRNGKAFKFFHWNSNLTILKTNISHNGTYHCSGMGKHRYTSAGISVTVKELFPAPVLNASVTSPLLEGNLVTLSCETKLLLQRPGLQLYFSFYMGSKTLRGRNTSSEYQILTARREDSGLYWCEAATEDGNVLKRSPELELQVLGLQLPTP
As to the kind of experiment: SPR.

A further assay deals with FcγRIIIa V158 (human, UniProt P08637). The experiment in a line: SPR.
Assay [2] concerns the target T3, human FcRn (human, UniProt P55899). The experiment in a line: SPR, pH 7.4.
Assay [3] addresses T3, human FcRn. The experiment in a line: SPR, pH 6.0.
Assay [4] addresses T4, human EpCAM on DiFi cells (human).
T4 chain: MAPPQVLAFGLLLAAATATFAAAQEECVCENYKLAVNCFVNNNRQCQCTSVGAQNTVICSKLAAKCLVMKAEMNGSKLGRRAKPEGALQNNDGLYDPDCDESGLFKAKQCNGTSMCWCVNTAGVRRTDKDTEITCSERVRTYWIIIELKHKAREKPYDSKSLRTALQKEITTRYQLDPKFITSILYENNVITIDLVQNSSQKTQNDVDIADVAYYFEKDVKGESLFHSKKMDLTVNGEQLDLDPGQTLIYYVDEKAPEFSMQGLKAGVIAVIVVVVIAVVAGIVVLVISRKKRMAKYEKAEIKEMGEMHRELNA
As to the kind of experiment: FACS, DiFi cells.

T3 sequence (P55899 24-297, chain 1 of 2): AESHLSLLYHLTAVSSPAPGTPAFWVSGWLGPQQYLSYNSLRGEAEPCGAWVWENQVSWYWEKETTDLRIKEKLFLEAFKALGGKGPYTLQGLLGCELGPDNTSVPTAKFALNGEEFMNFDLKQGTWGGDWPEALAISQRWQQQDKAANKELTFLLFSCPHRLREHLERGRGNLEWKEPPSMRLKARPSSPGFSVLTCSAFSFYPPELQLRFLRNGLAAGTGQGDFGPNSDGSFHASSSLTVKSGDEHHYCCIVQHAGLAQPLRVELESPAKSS
T3 sequence (chain, as listed by the source, chain 2 of 2): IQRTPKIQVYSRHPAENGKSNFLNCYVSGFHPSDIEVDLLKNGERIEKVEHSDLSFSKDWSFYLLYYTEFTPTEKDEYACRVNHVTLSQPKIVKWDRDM
Chain of FcγRIIIa V158 (P08637 17-208 F176V): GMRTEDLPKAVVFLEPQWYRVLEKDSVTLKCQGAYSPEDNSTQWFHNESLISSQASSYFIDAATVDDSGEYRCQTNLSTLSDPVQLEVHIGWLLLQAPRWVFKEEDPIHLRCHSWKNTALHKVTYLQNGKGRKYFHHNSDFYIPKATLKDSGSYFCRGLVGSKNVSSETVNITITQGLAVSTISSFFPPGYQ
Chain of FcγRIIIa F158 (P08637 17-208): as the sequence (P08637 17-208 F176V) above, with V160F counted along it

B1: BisG1-b12-FEAL/EpCAM-A37-FEAR (EpCAM arm) (antibody, V domains shown)
VH: QVQLVQSGAEVKKPGSSVRVSCKASGGTFSSYAISWVRQAPGQGLEWMGGIIPIFGTANYAQKFQGRVTITADESTSTAYMELSSLRSEDTAVYYCARDPFLHYWGQGTLVTVSS
VL: EIELTQSPGTLSLSPGERATLSCRASQTISNNYLAWYQQKRGQAPRLLIYAASSRATGIPDRFSGTGSGTDFTLTISRLEPEDFAVYYCAQGELYPRQFGGGTKLEIK
As a reminder, the Kd is the constant that tells how readily two partners part at equilibrium. As to B1, the affinity in assay [1], expressed as Kd, was 20 nM.

B2: BisG2amm-EpCAM-323-A3-AALT/m4-1BB-3H3-AAKR (EpCAM arm) (antibody, V domains shown)
VH: QIQLVQSGPELKKPGETVKISCKASGYTFTNYGMNWVRQASGEGLKWMGWINTYTGEPTYGEDFKGRFAFSLETSASTAYLQINNLKNEDTATYFCARFGNYVDYWGQGTTLTVSS
VL: DIVMTQAAFSNPVTLGTSASISCRSSKNLLHSNGITYLYWYLQKPGQSPHLLIYQMSNLASGVPDRFSSSGSGTDFTLRISRVEAEDVGVYYCAQNLEIPRTFGGGTKLEIKR
Molecule B2 had a Kd in assay [1] of 3.2 nM.

B3: IgG1-EpCAM-A37-FERL (antibody)
chain 1: not shown
chain 2: EIELTQSPGTLSLSPGERATLSCRASQTISNNYLAWYQQKRGQAPRLLIYAASSRATGIPDRFSGTGSGTDFTLTISRLEPEDFAVYYCAQGELYPRQFGGGTKLEIKRTVAAPSVFIFPPSDEQLKSGTASVVCLLNNFYPREAKVQWKVDNALQSGNSQESVTEQDSKDSTYSLSSTLTLSKADYEKHKVYACEVTHQGLSSPVTKSFNRGEC
Take B3: the binding result with FcγRIIIa F158, in the assay with FcγRIa, with FcγRIIIa V158 and with human FcRn [2] was “no binding” throughout. The molecule further returned an equilibrium dissociation constant (Kd) with human FcRn [3] of 230 nM.

B4: bsIgG1-b12-FERL/b12-FEAR (antibody)
chain 1: QVQLVQSGAEVKKPGASVKVSCQASGYRFSNFVIHWVRQAPGQRFEWMGWINPYNGNKEFSAKFQDRVTFTADTSANTAYMELRSLRSADTAVYYCARVGPYSWDDSPQDNYYMDVWGKGTTVIVSSASTKGPSVFPLAPSSKSTSGGTAALGCLVKDYFPEPVTVSWNSGALTSGVHTFPAVLQSSGLYSLSSVVTVPSSSLGTQTYICNVNHKPSNTKVDKRVEPKSCDKTHTCPPCPAPEFERGPSVFLFPPKPKDTLMISRTPEVTCVVVDVSHEDPEVKFNWYVDGVEVHNAKTKPREEQYNSTYRVVSVLTVLHQDWLNGKEYKCKVSNKALPAPIEKTISKAKGQPREPQVYTLPPSREEMTKNQVSLTCLVKGFYPSDIAVEWESNGQPENNYKTTPPVLDSDGSFLLYSKLTVDKSRWQQGNVFSCSVMHEALHNHYTQKSLSLSPG
chain 2: EIVLTQSPGTLSLSPGERATFSCRSSHSIRSRRVAWYQHKPGQAPRLVIHGVSNRASGISDRFSGSGSGTDFTLTITRVEPEDFALYYCQVYGASSYTFGQGTKLERKRTVAAPSVFIFPPSDEQLKSGTASVVCLLNNFYPREAKVQWKVDNALQSGNSQESVTEQDSKDSTYSLSSTLTLSKADYEKHKVYACEVTHQGLSSPVTKSFNRGEC
chain 3: QVQLVQSGAEVKKPGASVKVSCQASGYRFSNFVIHWVRQAPGQRFEWMGWINPYNGNKEFSAKFQDRVTFTADTSANTAYMELRSLRSADTAVYYCARVGPYSWDDSPQDNYYMDVWGKGTTVIVSSASTKGPSVFPLAPSSKSTSGGTAALGCLVKDYFPEPVTVSWNSGALTSGVHTFPAVLQSSGLYSLSSVVTVPSSSLGTQTYICNVNHKPSNTKVDKRVEPKSCDKTHTCPPCPAPEFEGGPSVFLFPPKPKDTLMISRTPEVTCVVVAVSHEDPEVKFNWYVDGVEVHNAKTKPREEQYNSTYRVVSVLTVLHQDWLNGKEYKCKVSNKALPAPIEKTISKAKGQPREPQVYTLPPSREEMTKNQVSLTCLVKGFYPSDIAVEWESNGQPENNYKTTPPVLDSDGSFFLYSRLTVDKSRWQQGNVFSCSVMHEALHNHYTQKSLSLSPG
chain 4: EIVLTQSPGTLSLSPGERATFSCRSSHSIRSRRVAWYQHKPGQAPRLVIHGVSNRASGISDRFSGSGSGTDFTLTITRVEPEDFALYYCQVYGASSYTFGQGTKLERKRTVAAPSVFIFPPSDEQLKSGTASVVCLLNNFYPREAKVQWKVDNALQSGNSQESVTEQDSKDSTYSLSSTLTLSKADYEKHKVYACEVTHQGLSSPVTKSFNRGEC
Take B4: the binding result in assay [4] was “no binding”.

B5: bsIgG1-b12-FERL/CD137-009-HC7LC2-FEAR (antibody)
chain 1: QVQLVQSGAEVKKPGASVKVSCQASGYRFSNFVIHWVRQAPGQRFEWMGWINPYNGNKEFSAKFQDRVTFTADTSANTAYMELRSLRSADTAVYYCARVGPYSWDDSPQDNYYMDVWGKGTTVIVSSASTKGPSVFPLAPSSKSTSGGTAALGCLVKDYFPEPVTVSWNSGALTSGVHTFPAVLQSSGLYSLSSVVTVPSSSLGTQTYICNVNHKPSNTKVDKRVEPKSCDKTHTCPPCPAPEFERGPSVFLFPPKPKDTLMISRTPEVTCVVVDVSHEDPEVKFNWYVDGVEVHNAKTKPREEQYNSTYRVVSVLTVLHQDWLNGKEYKCKVSNKALPAPIEKTISKAKGQPREPQVYTLPPSREEMTKNQVSLTCLVKGFYPSDIAVEWESNGQPENNYKTTPPVLDSDGSFLLYSKLTVDKSRWQQGNVFSCSVMHEALHNHYTQKSLSLSPG
chain 2: EIVLTQSPGTLSLSPGERATFSCRSSHSIRSRRVAWYQHKPGQAPRLVIHGVSNRASGISDRFSGSGSGTDFTLTITRVEPEDFALYYCQVYGASSYTFGQGTKLERKRTVAAPSVFIFPPSDEQLKSGTASVVCLLNNFYPREAKVQWKVDNALQSGNSQESVTEQDSKDSTYSLSSTLTLSKADYEKHKVYACEVTHQGLSSPVTKSFNRGEC
chain 3: EVQLVESGGGLVQPGRSLRLSCTASGFSLNDYWMSWVRQAPGKGLEWVGYIDVGGSLYYAASVKGRFTISRDDSKSIAYLQMNSLKTEDTAVYYCARGGLTYGFDLWGQGTLVTVSSASTKGPSVFPLAPSSKSTSGGTAALGCLVKDYFPEPVTVSWNSGALTSGVHTFPAVLQSSGLYSLSSVVTVPSSSLGTQTYICNVNHKPSNTKVDKRVEPKSCDKTHTCPPCPAPEFEGGPSVFLFPPKPKDTLMISRTPEVTCVVVAVSHEDPEVKFNWYVDGVEVHNAKTKPREEQYNSTYRVVSVLTVLHQDWLNGKEYKCKVSNKALPAPIEKTISKAKGQPREPQVYTLPPSREEMTKNQVSLTCLVKGFYPSDIAVEWESNGQPENNYKTTPPVLDSDGSFFLYSRLTVDKSRWQQGNVFSCSVMHEALHNHYTQKSLSLSPG
chain 4: DIVMTQSPSSLSASVGDRVTITCQASEDISSYLAWYQQKPGKAPKRLIYGASDLASGVPSRFSASGSGTDYTFTISSLQPEDIATYYCHYYATISGLGVAFGGGTKVEIKRTVAAPSVFIFPPSDEQLKSGTASVVCLLNNFYPREAKVQWKVDNALQSGNSQESVTEQDSKDSTYSLSSTLTLSKADYEKHKVYACEVTHQGLSSPVTKSFNRGEC
Consider B5, for which the binding result in assay [4] is reported as “no binding”.
